US20220195007A1

Target: CD20 polypeptide (safety switch) expressed on transduced T cells (human) (UniProt P11836)
Assay: cell-based or functional assay

UniProt P11836, sequence (P11836 whole entry): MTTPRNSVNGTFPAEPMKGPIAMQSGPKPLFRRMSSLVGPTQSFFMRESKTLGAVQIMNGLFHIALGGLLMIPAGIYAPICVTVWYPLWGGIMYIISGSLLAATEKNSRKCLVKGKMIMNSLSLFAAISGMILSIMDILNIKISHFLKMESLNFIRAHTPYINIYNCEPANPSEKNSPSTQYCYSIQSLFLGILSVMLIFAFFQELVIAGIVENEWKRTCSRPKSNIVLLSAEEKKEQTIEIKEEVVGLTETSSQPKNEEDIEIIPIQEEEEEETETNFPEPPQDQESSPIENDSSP

In the case of Rituximab (Rituxan®, Biogen) (antibody), the 4-hour chromium release assay on IL13Rα2-CAR^CD20 T cells is reported as 70%, the decrease in CD20+ cell number by flow cytometry after 1 hour (rituximab + complement vs rituximab alone) is reported as > 30% and the killing of CD123-CAR T cells by rituximab and complement is reported as 80%.
